Measured values as given in patent CN110404066A (QILU PHARMACEUTICAL CO LTD, dated 2019).

What was measured:
PD-1抗原 [1] = molecular target: T1, PD-1抗原 (UniProt Q15116 25-167, limits assumed); test: SPR (Biacore T200), antibody captured by anti-human Fc on CM5, PD-1 antigen as analyte, 1:1 model, first repeat
PD-1抗原 [2] = molecular target: T1, PD-1抗原; test: SPR (Biacore T200), antibody captured by anti-human Fc on CM5, PD-1 antigen as analyte, mean of two repeats
PD-1抗原 [3] = molecular target: T1, PD-1抗原; test: SPR (Biacore T200), antibody captured by anti-human Fc on CM5, PD-1 antigen as analyte, 1:1 model, second repeat

T1 sequence (Q15116 25-167 limits assumed): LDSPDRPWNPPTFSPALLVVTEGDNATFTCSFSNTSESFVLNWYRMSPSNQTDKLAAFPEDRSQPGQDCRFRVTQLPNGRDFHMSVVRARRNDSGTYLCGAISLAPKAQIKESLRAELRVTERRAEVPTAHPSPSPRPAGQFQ

Kd (PD-1抗原 [1]): 1.91 nM | Kd (PD-1抗原 [2]): 1.87 nM | Kd (PD-1抗原 [3]): 1.82 nM
B1: 抗人PD-1的单克隆抗体ZMR01 (antibody, V domains shown)
VH: QVQLVQSGAEVKKPGASVKVSCKASGYTFTNYWIHWVRQAPGQGLEWMGEIDPYDSYTNYNQKFKGRVTMTVDKSTSTVYMELSSLRSEDTAVYYCARPGFTYGGMDFWGQGTLVTVSS
VL: DIQMTQSPSSLSASVGDRVTITCKSSQSLFNSGNQKNYLAWYQQKPGKVPKLLIYGASTRDSGVPYRFSGSGSGTDFTLTISSLQPEDVATYYCQNDHYYPYTFGGGTKVEIK
